Test results as given in patent EP1787997A1 (Genetics Institute, LLC, dated 2007).

Columns and labels:
[1] = biological target: T1, murine MU-1 Ig fusion protein (murine, UniProt Q9JHX3 20-236); test: Biacore, MU-1 Ig fusion immobilized on chip
T1 construct: It includes the predicted leader 1-19, the transmembrane domain 237-253 and the cytoplasmic domain; Immobilized on a Biacore chip; not shown: Ig part of the fusion

[2] = biological target: T2, human MU-1 Ig fusion protein (human, UniProt Q9HBE5 20-235); test: Biacore, MU-1 Ig fusion immobilized on chip
T2 construct: A soluble fusion would most likely hold only the extracellular part; Immobilized on a Biacore chip; not shown: Ig part of the fusion
T2 sequence (Q9HBE5 20-235): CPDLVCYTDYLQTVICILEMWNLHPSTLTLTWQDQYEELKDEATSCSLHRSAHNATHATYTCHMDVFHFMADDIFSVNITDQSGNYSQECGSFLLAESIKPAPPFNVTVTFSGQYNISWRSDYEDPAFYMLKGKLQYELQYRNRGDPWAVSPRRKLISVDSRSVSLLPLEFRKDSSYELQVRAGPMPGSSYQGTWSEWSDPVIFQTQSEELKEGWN

Row | binding result [1] | binding result [2] | Binder
1 | no binding | no binding | mIL-2 (ligand, mouse, UniProt P04351 21-169, looked up) APTSSSTSSSTAEAQQQQQQQQQQQQHLEQLLMDLQELLSRMENYRNLKLPRMLTFKFYLPKQATELKDLQCLEDELGPLRHVLDLTQSKSFQLEDAENFISNIRVTVVKLKGSDNTFECQFDDESATVVDFLRRWIAFCQSIISTSPQ
2 | no binding | no binding | mIL-7 (ligand, mouse, UniProt P10168 26-154, looked up) ECHIKDKEGKAYESVLMISIDELDKMTGTDSNCPNNEPNFFRKHVCDDTKEAAFLNRAARKLKQFLKMNISEEFNVHLLTVSQGTQTLVNCTSKEEKNVKEQKKNDACFLKRLLREIKTCWNKILKGSI
